Assay results published in PMC6316659.

What was measured:
[1] = target: native BPL2 (Bryopsis plumosa mannose-binding lectin 2) (Bryopsis plumosa)
[2] = target: rD4BPL2 (recombinant Bryopsis plumosa lectin 2, tetrameric tandem repeat construct) (Bryopsis plumosa)

B1: bovine serum fetuin (natural protein)
chain: IPLDPVAGYKEPACDDPDTEQAALAAVDYINKHLPRGYKHTLNQIDSVKVWPRRPTGEVYDIEIDTLETTCHVLDPTPLANCSVRQQTQHAVEGDCDIHVLKQDGQFSVLFTKCDSSPDSAEDVRKLCPDCPLLAPLNDSRVVHAVEVALATFNAESNGSYLQLVEISRAQFVPLPVSVSVEFAVAATDCIAKEVVDPTKCNLLAEKQYGFCKGSVIQKALGGEDVRVTCTLFQTQPVIPQPQPDGAEAEAPSAVPDAAGPTPSAAGPPVASVVVGPSVVAVPLPLHRAHYDLRHTFSGVASVESSSGEAFHVGKTPIVGQPSIPGGPVRLCPGRIRYFKI
Question: Which results are given for B1?
Answer: minimum concentration of fetuin that inhibits the agglutination of a 4% horse erythrocyte suspension by 4 HU lectin [1]: 195 µg/mL; minimum concentration of fetuin that inhibits the agglutination of a 4% horse erythrocyte suspension by 4 HU lectin [2]: 12.2 µg/mL
